The target in this assay is hepatitis B virus surface antigen (HBsAg) (Hepatitis B virus). As to the kind of experiment: competitive ELISA: plate-coated HBsAg, soluble HBsAg as competitor, purified IgG.

B1: human antibody HB48-59 (antibody, V domains shown)
VH: QVQLVQSGGEVKKPGALMKVSCKASGYIFTSYGISWVRQAPGQGLEWIGWINTYSGHTNYARKFRGRVTMTWDTSTSTAYMELSSLRSDDTAVYYCARVPTWGIDYWGQGTLVTVSS
VL: DIVMTQTPLSLPVTPGEPASISCRSSQSLLHSNGYNYLDWYLQKPGQSPQLLIYLGSKRASGVPDRFSGSGSGTDFTLQISRVEAEDVGVYYCMQSTQFPPYTFGQGTKLEIKR
B1 came in with a fold lower affinity than HB48-35 of 1.3 fold.

B2: human antibody HB48-33 (antibody, V domains shown)
VH: B1 VH
VL: QAGLTQPPSVSVAPGKTARITCGGDNIGRKSVHWYQQKTGQAPVLVVYEDNKRPSGIPERFSGSNSGNTATLTISGTQAMDEADYYCQAWDSSTVVFGGGTKLTVLG
The molecule B2 had a fold lower affinity than HB48-35 of 4 fold.

The values are drawn from patent publication US20120264921A1.
